# Test results reported in patent publication US20180215829A1 (CRESCENDO BIOLOGICS, published 2018).
# Numbering of substitutions follows the chain as printed. Like-named read-outs stand apart in the source and are kept apart here.
# T1: recombinant human IL-17RA Fc fusion protein (R&D Systems 177-IR-100) (human, UniProt Q96F46 33-320)
# T1 construct: Bought protein; not shown: Fc domain of human IgG1
# T1 sequence: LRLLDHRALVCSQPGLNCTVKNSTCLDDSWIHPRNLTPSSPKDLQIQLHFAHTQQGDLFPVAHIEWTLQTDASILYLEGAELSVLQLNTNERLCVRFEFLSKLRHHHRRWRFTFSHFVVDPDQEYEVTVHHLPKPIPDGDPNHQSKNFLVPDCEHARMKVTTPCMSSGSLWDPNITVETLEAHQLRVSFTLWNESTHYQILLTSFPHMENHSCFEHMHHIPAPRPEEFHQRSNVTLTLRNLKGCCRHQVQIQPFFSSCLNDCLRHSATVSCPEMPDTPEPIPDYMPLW
# T2: human IL-17RA on HT1080 cells (human, UniProt Q96F46 33-866)
# T2 sequence: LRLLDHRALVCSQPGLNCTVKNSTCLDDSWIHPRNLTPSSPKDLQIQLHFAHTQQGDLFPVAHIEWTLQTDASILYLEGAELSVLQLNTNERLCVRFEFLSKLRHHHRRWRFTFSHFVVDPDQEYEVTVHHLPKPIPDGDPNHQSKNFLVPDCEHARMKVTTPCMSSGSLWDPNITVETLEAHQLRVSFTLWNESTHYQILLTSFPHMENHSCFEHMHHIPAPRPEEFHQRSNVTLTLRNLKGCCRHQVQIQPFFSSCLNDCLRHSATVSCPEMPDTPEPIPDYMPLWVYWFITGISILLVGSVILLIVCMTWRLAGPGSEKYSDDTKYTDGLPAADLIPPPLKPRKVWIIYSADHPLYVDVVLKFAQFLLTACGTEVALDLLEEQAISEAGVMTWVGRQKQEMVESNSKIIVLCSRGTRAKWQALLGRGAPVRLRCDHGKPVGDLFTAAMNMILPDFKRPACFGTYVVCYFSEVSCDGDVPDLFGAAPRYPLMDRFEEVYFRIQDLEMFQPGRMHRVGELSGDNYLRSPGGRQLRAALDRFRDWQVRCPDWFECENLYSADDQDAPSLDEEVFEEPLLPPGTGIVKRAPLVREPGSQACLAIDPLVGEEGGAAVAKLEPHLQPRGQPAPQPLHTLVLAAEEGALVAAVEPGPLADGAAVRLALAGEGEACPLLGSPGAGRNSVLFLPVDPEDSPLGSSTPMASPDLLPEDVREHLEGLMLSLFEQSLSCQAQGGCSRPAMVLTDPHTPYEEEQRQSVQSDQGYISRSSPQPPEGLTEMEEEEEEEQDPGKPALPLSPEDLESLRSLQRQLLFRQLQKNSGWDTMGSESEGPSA
# T3: IL-17RD (UniProt Q8NFM7 17-299, limits assumed)
# T3 sequence (looked up): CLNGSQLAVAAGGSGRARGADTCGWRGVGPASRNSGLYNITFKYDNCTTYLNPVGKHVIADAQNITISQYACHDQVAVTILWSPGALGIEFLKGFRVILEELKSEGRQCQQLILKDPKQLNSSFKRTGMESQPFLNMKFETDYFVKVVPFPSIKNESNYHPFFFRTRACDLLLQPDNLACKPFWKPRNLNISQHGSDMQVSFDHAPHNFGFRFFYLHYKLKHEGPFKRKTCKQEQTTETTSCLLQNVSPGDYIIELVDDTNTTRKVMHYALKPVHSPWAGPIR
# T4: IL-17RB (UniProt Q9NRM6 18-289, limits assumed)
# T4 sequence (looked up): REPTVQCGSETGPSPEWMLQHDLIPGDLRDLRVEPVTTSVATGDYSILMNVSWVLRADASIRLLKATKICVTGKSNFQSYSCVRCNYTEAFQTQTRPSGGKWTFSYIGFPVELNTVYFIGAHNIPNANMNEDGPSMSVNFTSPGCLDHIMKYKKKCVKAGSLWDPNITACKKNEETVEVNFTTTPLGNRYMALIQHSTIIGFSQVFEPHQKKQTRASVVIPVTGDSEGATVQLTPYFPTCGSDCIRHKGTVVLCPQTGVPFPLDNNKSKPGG
# B1: VH clone 2.3 (VHH)
# VHH: QVQLVQSGAEVKKPGASVKVSCKASGYPFTSYDINWVRQATGRSLEWMGWMNPTSGDTVYAQKFQDRVTMTRNTSISTAYMELSSLRSEDTAVYFCARGRRDNWKNNYWGQGTLVTVSS
# notes: Human VH single domain antibody, no light chain; Optimised variant of clone 2.1
# B2: VH clone 1.2 (VHH)
# VHH: EVQLVESGGGLVQPGRSLRLSCAASGFTFDDYAMHWVRQAPGKGLEWVSGISWNSGRMDYADSVKGRFTISRDNAKNSLYLQMNSLRAEDTALYYCAKEKGLGYCRGGSCSYFDYRGQGTLVTVSS
# notes: Human VH single domain antibody, no light chain; Family 1; also called VH 1.2
# B3: VH clone 1.1 (VHH)
# VHH: B2 VHH with E1Q, N77K, L93M, Y104F
# notes: Human VH single domain antibody, no light chain; Parent clone of family 1; also called VH 1.1
# B4: VH clone 5.1 (VHH)
# VHH: EVQLVESGGGLVKPGGSLRLSCEASGFTFSDFDMSWIRQAPGKGLEWVAYISSSDSTIYYRDSVKGRFTISRDNAKNSLYLQMNSLRAEDTAVYYCSRNGARYNWNYGDFQHWGQGTLVTVSS
# notes: Human VH single domain antibody, no light chain; Parent clone of family 5
# B5: VH clone 4.1 (VHH)
# VHH: QVQLVQSGAEVKKPGASVKVSCKASGYPFTNYDISWIRQATGQSLEWMGWMNPDSGNTGYAQKFQGRVTMTRNTSISTAYMELSGLRSEDTAVYFCARGGYNAWRTDYWGQGTLVTVSS
# notes: Human VH single domain antibody, no light chain; Parent clone of family 4
# B6: VH clone 4.55 (VHH)
# VHH: QVQLQQSGAEVKKPGASVKVSCKASGYTFTSYDISWVRQATGQSLEYMGWMNPNSGNTGYAQKFQGRVTMTRNTSISTAYMELSSLRSEDTAVYYCARGGITEWRRDYWGQGTLVTVSS
# notes: Human VH single domain antibody, no light chain; Family 4
# B7: VH clone 6.1 (VHH)
# VHH: EVQLVESGGGLVKPGGSLRLSCAASGFTFSDDYMSWLRQAPGKGLEWVSYISSSGSTIYYADSVKGRFTISRDNAKNSLYLQMNSLRAEDSAVYYCARKDITNIAVGSLGYWGQGTLVTVSS
# notes: Human VH single domain antibody, no light chain; Parent clone of family 6
# B8: VH clone 7.1 (VHH)
# VHH: EVQLVESGGGLVQPGGSLRLSCAASGFTFSNYWMSWVRQARGKGLEWVANIRPDGSERYYVDSVKGRFTISRDNAKNSLYLQMSSLRAEDTAVYYCARSRDWGSRAFDIWGQGTMVTVSS
# notes: Human VH single domain antibody, no light chain; Parent clone of family 7
# B9: VH clone 3.1 (VHH)
# VHH: EVQLVESGGGLVQPGGSLRLSCAASGFPFSTYWMRWLRQAPGKGLEWVANINQDGSEKYYVDSVKGRFTISRDNAKSSLFLQMNSLRAEDTAVYYCARGWESGWFEPWGQGTLVTVSS
# notes: Human VH single domain antibody, no light chain; Parent clone of family 3; also called VH 3.1
# B10: VH clone 3.20 (VHH)
# VHH: B9 VHH with E1Q, N52K, S77N
# notes: Human VH single domain antibody, no light chain; Family 3; also called VH 3.20
# B11: VH 62A4 (VHH)
# VHH: QVQLVESGGGLVQPGRSLTLSCTASGFTFHDYAMHWVRQPPGGGLEWVAGVSWNGNNVGYADSVKGRFTISRDNAKKSLYLQMNSLRSEDTALYYCAKGGMGSGSHPDSFSTWGQGTMVTVSS
# notes: VH single domain
# What was measured:
# [1] = target: T1, recombinant human IL-17RA Fc fusion …; assay: receptor/ligand biochemical inhibition ELISA: VH competes with 1 nM IL-17A for coated IL-17RA-Fc
# Description: (§1) VH, both purified and crude periplasmic extracts, were also tested for their ability to inhibit the interaction of IL-17A with recombinant IL-17RA-Fc. […] Following washing of excess coating antigen, as described above, the wells of the plate were incubated with 3% Marvel/PBS to block non-specific protein interactions. VH preparations, crude periplasmic extracts or purified VH, or suitable controls, were prepared with 1 nM recombinant IL-17A (Peprotech, cat# AF-200-17) in 3% skimmed milk powder/PBS solution in polypropylene plates or tubes. The mixture was then transferred to the assay plate and incubated for 1 hour at room temperature. Excess protein was removed by washing and bound IL-17A was detected by incubation with biotinylated anti-IL-17A Mab (R & D Systems, cat BAF317) followed by the addition of neutravidin-HRP (Pierce, cat#31030) and TMB substrate (Sigma, cat# T0440). The TMB reaction was stopped by addition of 0.5M H₂SO₄ and absorbances were measured at 450 nm in a plate reader.
# [2] = target: T2, human IL-17RA on HT1080 cells; assay: cell-based or functional assay
# [3] = target: T1, recombinant human IL-17RA Fc fusion …; assay: BIAcore T200 single-cycle kinetics, IL-17RA-Fc captured on protein G chip, VH as analyte
# Description: (§2) Binding kinetics of anti-IL-17RA VH antibodies were measured on a BIAcore® T200 instrument. For IL-17RA, first a protein G chip was prepared by diluting protein G to 20 ug/ml in acetate buffer, pH 4 (BIAcore®, cat# BR-100-49) and then coupled 1200 RU to a CM5 Series S chip using amine coupling chemistry. This surface was then used to capture IL-17RA Fc fusion protein from solution: IL-17RA at 10 ug/ml in HBS injected for 10 seconds at 30 ul/min flow rate would capture approximately 100-150 RU of IL-17RA onto the protein G surface.
# (§3) Binding kinetics of anti-IL-17RA VH antibodies were determined by single-cycle kinetics. VH antibodies were prepared in dilution series (typically 1:3 dilution series starting with 100 nM VH at the highest concentration), and then injected over the antigen coated surfaces and also a blank surface, starting with the lowest concentration of VH and then working progressively up to the highest concentration. VH binding kinetics were then determined from the (blank subtracted) sensorgram traces using 1:1 binding models and BIAevaluation software.
# [4] = target: T3, IL-17RD; assay: specificity ELISA, antigen coated, anti-His-HRP detection
# Description: (§4) The binding ELISA for crude or purified VH was similar to the serum ELISA and phage ELISA, previously described, mostly differing in the final detection steps. Briefly, antigen was immobilised on maxisorb plates (Nunc 443404) by adding 50 ul volumes at 0.1-1 ug/ml in PBS and incubating at 4° C. overnight. Following coating, the antigen solution was aspirated and the plates were washed using PBS (prepared from PBS tablets, Oxoid cat no. BR0014G) supplemented with 0.05% Tween® 20 (sigma P1379), followed by washes with PBS without added Tween®. To block non-specific protein interactions, a solution of 3% skimmed milk powder (Marvel) in PBS was added to the wells and the plate was incubated for at least one hour at room temperature. Dilutions of periplasmic extract or purified VH in 3% Marvel/PBS were prepared in polypropylene tubes or plates and incubated for at least one hour at room temperature prior to transfer to the blocked ELISA plate where a further incubation of at least one hour took place. Unbound protein was then washed away using repetitive washes with PBS/Tween® followed by PBS. A solution of HRP-conjugated anti-His Ab (Miltenyi Biotec, 130-092-785), prepared at 1:1000 dilution in PBS/3% Marvel was then added to each well and a further incubation at room temperature for at least one hour took place. Unbound detection antibody was removed by repeated washing using PBS/Tween® and PBS. The ELISA was then developed using TMB substrate (Sigma cat. no. T0440) and the reaction was stopped after 10 minutes by the addition of 0.5M H₂SO₄ solution (Sigma cat. no. 320501). Absorbances were determined by reading at 450 nm.
# [5] = target: T4, IL-17RB; assay: as above
# Description: as §4
# [6] = target: T2, human IL-17RA on HT1080 cells; assay: cell-based or functional assay; remark: listed apart in the source
# [7] = target: T2, human IL-17RA on HT1080 cells; assay: cell-based or functional assay; remark: listed apart in the source
# [8] = target: T1, recombinant human IL-17RA Fc fusion …; assay: BIAcore T200 single-cycle kinetics, IL-17RA-Fc captured on protein G chip, VH as analyte; remark: listed apart in the source
# Description: as §2, §3
# [9] = target: T1, recombinant human IL-17RA Fc fusion …; assay: receptor/ligand biochemical inhibition ELISA: VH competes with 1 nM IL-17A for coated IL-17RA-Fc; remark: listed apart in the source
# Description: as §1
# [10] = target: T1, recombinant human IL-17RA Fc fusion …; assay: IL-17RA ligand inhibition ELISA (FIG. 10B): VH competes with IL-17A for coated IL-17RA-Fc
# Description: as §1
binder,measurement,setting,value
B1,IC50,[1],1.3 nM
same,Cell assay IC50,[2],118 nM
same,Kd,[3],2.5 nM
same,koff,[3],0.00137 s⁻¹
same,kon,[3],555000 M⁻¹ s⁻¹
B2,binding result,[4],no binding
same,binding result,[5],no binding
same,"IC50 (nM), cell-based assay",[6],141 nM
B3,binding result,[4],no binding
same,binding result,[5],no binding
same,Cell assay IC50,[7],4.7 nM
same,"IC50 (nM), cell-based assay",[6],39 nM
same,Kd,[8],0.063 nM
B4,IC50,[9],80 nM
same,Cell assay IC50,[7],73 nM
same,Kd,[8],41 nM
B5,Cell assay IC50,[7],282 nM
same,Kd,[8],4.5 nM
B6,IC50,[10],6930 nM
B7,Cell assay IC50,[7],233 nM
same,Kd,[8],31 nM
B8,Cell assay IC50,[7],1840 nM
same,Kd,[8],370 nM
B9,IC50,[9],11 nM
same,Kd,[8],9.6 nM
B10,IC50,[10],22 nM
B11,binding result,[4],no binding
same,binding result,[5],no binding
